± gives the standard deviation of the averaged measurements.
Tests used:
[1] = tested on: Saccharomyces cerevisiae; assay: protein stability index of tFT-peptide fusion (C-terminal peptide) (PSI (0-1 scale)); higher = more stable (slower turnover)
Protocol: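 MPS profiling in S. cerevisiae of the tFT-X12 degron library: putative degron peptides plus stable controls, 12 aa, fused to the C-terminus of a sfGFP-mCherry timer. Cells are FACS-sorted into 8 mCherry/sfGFP bins and deep-sequenced. PSI runs from 0 (unstable) to 1 (stable). Backgrounds are wild type, das1Δ and doa10Δ at 30 °C, and wild type, das1Δ, cdc34-1 and cdc53-1 at 37 °C; 2-3 technical replicates each.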

[2] = tested on: Saccharomyces cerevisiae; assay: as above; conditions: genetic background: wild type; temperature: 30 C
[3] = genetic background: cdc34-1, temperature: 37 C
[4] = genetic background: cdc53-1, temperature: 37 C
[5] = genetic background: das1 deletion, temperature: 30 C
[6] = genetic background: das1 deletion, temperature: 37 C
[7] = genetic background: doa10 deletion, temperature: 30 C
[8] = genetic background: wild type, temperature: 30 C
[9] = genetic background: wild type, temperature: 37 C
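Further: PSI is a weighted mean of sequencing reads over stability bins, variants kept only with over 10 reads, mCherry proximal and sfGFP distal, peptide attached via GGGS linker.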

Sequence	protein stability index [1, 3]	protein stability index [1, 4]	protein stability index [1, 5]	protein stability index [1, 6]	protein stability index [1, 7]	protein stability index [1, 8]	protein stability index [1, 9]	protein stability index [2]
CCNVLFRVCLFL	0.459 ± 0.0095	0.526 ± 0.059	0.405 ± 0.042	0.542 ± 0.022	0.277 ± 0.0045	0.304 ± 0.025	0.4334 ± 0.0041	0.353 ± 0.048
CFGVVVLGLSLD	0.442 ± 0.0052	0.503 ± 0.031	0.352 ± 0.039	0.564 ± 0.015	0.319 ± 0.0043	0.354 ± 0.027	0.531 ± 0.021	0.491 ± 0.024
CFLPFFIIFIFV	0.214 ± 0.006	0.177 ± 0.019	0.209 ± 0.037	0.32781 ± 3.9e-05	0.271 ± 0.0063	0.197 ± 0.031	0.301 ± 0.015	0.29 ± 0.0067
CFVFIGVGVLLG	0.205 ± 0.0083	0.387 ± 0.025	0.29 ± 0.039	0.4436 ± 0.00094	0.224 ± 0.0069	0.234 ± 0.021	0.382 ± 0.014	0.376 ± 0.037
CIEIDHVIVAIC	0.464 ± 0.019	0.527 ± 0.062	0.348 ± 0.035	0.563 ± 0.03	0.265 ± 0.0061	0.334 ± 0.015	0.492 ± 0.018	0.446 ± 0.021
DNTVWLRLVTSC	0.32 ± 0.052	0.506 ± 0.011	0.402 ± 0.017	0.565 ± 0.013	0.0752 ± 0.013	0.0895 ± 0.015	0.0768 ± 0.016	
FCLRQPMLRFFI	0.586 ± 0.027	0.595 ± 0.012	0.562 ± 0.037	0.639 ± 0.0057	0.479 ± 0.03	0.442 ± 0.028	0.54348 ± 9.7e-05	
FLFVSVFHPALL	0.6421 ± 0.0042	0.70858 ± 0.0003	0.593 ± 0.059	0.6911 ± 0.0062	0.3787 ± 0.0024	0.409 ± 0.019	0.601 ± 0.013	
GAVGGWGWVSFV	0.683 ± 0.049	0.7583 ± 0.0075	0.603 ± 0.034	0.771 ± 0.01	0.3855 ± 0.0037	0.397 ± 0.0083	0.595 ± 0.092	
GGCGFVWWRLLG	0.544 ± 0.023	0.6932 ± 0.0055	0.622 ± 0.033	0.752 ± 0.0098	0.125 ± 0.0054	0.144 ± 0.033	0.199 ± 0.022	
GGGRGGRWGRLC	0.65 ± 0.042	0.743 ± 0.016	0.654 ± 0.013	0.7395 ± 0.007	0.188 ± 0.018	0.214 ± 0.024	0.483 ± 0.012	
GLLMCNPLLHSI	0.66632 ± 0.00053	0.734 ± 0.0075	0.674 ± 0.038	0.727 ± 0.03	0.589 ± 0.032	0.614 ± 0.011	0.704 ± 0.016	
IMWAFFMFCSFL	0.498 ± 0.067	0.53764 ± 0.00031	0.428 ± 0.057	0.5564 ± 0.0029	0.37 ± 0.0076	0.367 ± 0.026	0.481 ± 0.044	
LSLCFGPFFYFP	0.679 ± 0.072	0.7329 ± 0.0056	0.64 ± 0.029	0.711 ± 0.03	0.64 ± 0.042	0.6242 ± 0.0027	0.704 ± 0.046	
